Experimental findings from the supplement of paper PMC9732359 are described below.

± gives the uncertainty stated by the source.

This series can be described thus: protein stability index of a GFP-peptide fusion (yeast GPS) (PSI 1-4); higher = more stable; sorted into four equal gates, so the index is relative within each strain. The essentials: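 Plasmids in a pooled yeast library fused tiled 17-residue yeast protein peptides downstream of GFP and also expressed Cherry. Mid-log cultures grown without leucine were sorted into four equal gates by GFP/Cherry fluorescence ratio. Each gate's plasmids were PCR-amplified and Illumina-sequenced, and reads were matched to strains by barcodes. The protein stability index is derived by multiplying each gate's read frequency by its gate number and summing the results.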

Take DEDLLDTQTFSVLLQQL [YGL172W/NUP49]: the protein stability index reads like this: (doa10∆) 2.93 ± 0.059; (pdr5∆) 2.81 ± 0.063; (san1∆) 1.72 ± 0.11; (ubr1∆) 2.57 ± 0.045.

As for IPHDLNFLQESYEVEHV [TAF14], the protein stability index came out at 3.16 ± 0.096 (doa10∆), 3.33 ± 0.087 (pdr5∆), 2.85 ± 0.07 (san1∆) and 3.12 ± 0.056 (ubr1∆).

For the sequence DTVDRLIIKYQKYWESM [GAL11], the protein stability index reads like this: (doa10∆) 2.73 ± 0.053; (pdr5∆) 2.83 ± 0.065; (san1∆) 2.62 ± 0.053; (ubr1∆) 3.02 ± 0.062.

With KTVAVDSVFEQNEMIDA [RPL3], the protein stability index (doa10∆) is 2.57 ± 0.095, the protein stability index (pdr5∆) amounted to 2.75 ± 0.12, the protein stability index (san1∆) was found to be 2.31 ± 0.11 and the protein stability index (ubr1∆) came out at 2.51 ± 0.042.

For IPTNPVDNENNKPAIKE [SWI3], the protein stability index is, setting by setting: (doa10∆) 2.95 ± 0.074; (pdr5∆) 3.1 ± 0.083; (san1∆) 2.89 ± 0.11; (ubr1∆) 3.21 ± 0.068.

EILVLYNVCDTSKSLVK [SIN4]: the protein stability index reads like this: (doa10∆) 2.3 ± 0.05; (pdr5∆) 2.88 ± 0.046; (san1∆) 2.56 ± 0.058; (ubr1∆) 2.97 ± 0.057.

On to VKFLVYQGVYSMGSILL [YML031W/NDC1], for which the protein stability index (doa10∆) turned out to be 1.65 ± 0.091, the protein stability index (pdr5∆) was 1.43 ± 0.088, the protein stability index (san1∆) amounted to 1.28 ± 0.099 and the protein stability index (ubr1∆) stood at 1.7 ± 0.17.

Consider SKQNGSKFHFSWNESED [PRP28], for which the protein stability index is, setting by setting: (doa10∆) 2.73 ± 0.061; (pdr5∆) 2.94 ± 0.064; (san1∆) 2.72 ± 0.072; (ubr1∆) 2.79 ± 0.046.

For LEEQQQLEDESSRLEFV [YML103C/NUP188], the protein stability index reads like this: (doa10∆) 3.43 ± 0.084; (pdr5∆) 3.3 ± 0.086; (san1∆) 3.39 ± 0.06; (ubr1∆) 3.46 ± 0.08.

YVYRASKEVRGSKIRVM [RPL33A]: the protein stability index is, setting by setting: (doa10∆) 2.75 ± 0.063; (pdr5∆) 2.81 ± 0.086; (san1∆) 2.5 ± 0.064; (ubr1∆) 2.88 ± 0.049.

On to QQRFQALQQQQQQQQNQ [SWI1], for which the protein stability index is, setting by setting: (doa10∆) 2.05 ± 0.05; (pdr5∆) 2.07 ± 0.046; (san1∆) 2.25 ± 0.052; (ubr1∆) 2.04 ± 0.059.

Consider DNSESHPFIPLLKEKPN [RRP6], for which the protein stability index worked out at 1.93 ± 0.066 (doa10∆), 1.93 ± 0.059 (pdr5∆), 1.99 ± 0.071 (san1∆) and 1.99 ± 0.051 (ubr1∆).

Regarding YPDLQPFVLAENMWPFS [CDC53], the protein stability index is 1.68 ± 0.05 (doa10∆), 2.09 ± 0.044 (pdr5∆), 2.01 ± 0.055 (san1∆) and 1.71 ± 0.044 (ubr1∆).

For the sequence SQRAQVVTMSVKSVNDP [RPC37], the protein stability index (doa10∆) was 2.17 ± 0.073, the protein stability index (pdr5∆) was 2.4 ± 0.11, the protein stability index (san1∆) was found to be 1.89 ± 0.08 and the protein stability index (ubr1∆) worked out at 1.97 ± 0.1.

For PIDNNIIFASTKLGFTF [SNU114], the protein stability index was 2.63 ± 0.05 (doa10∆), 2.52 ± 0.047 (pdr5∆), 2.38 ± 0.054 (san1∆) and 2.67 ± 0.035 (ubr1∆).

For the sequence KAFTNWNKRDFMAFINA [ISW2], the protein stability index was 1.26 ± 0.078 (doa10∆), 1.25 ± 0.091 (pdr5∆), 1.25 ± 0.16 (san1∆) and 1.16 ± 0.062 (ubr1∆).

Consider AIKDKLEQDLHFENAKV [YIL149C/MLP2], for which the protein stability index is, setting by setting: (doa10∆) 3.09 ± 0.066; (pdr5∆) 3.29 ± 0.075; (san1∆) 3.35 ± 0.069; (ubr1∆) 3.16 ± 0.079.

For ITLRGVENIERVVMMKY [RPO21], the protein stability index reads like this: (doa10∆) 2.22 ± 0.12; (pdr5∆) 2.28 ± 0.096; (san1∆) 1.23 ± 0.16; (ubr1∆) 2.19 ± 0.076.

As for IFSFHQDSIFQRIIADL [SRB8], the protein stability index (doa10∆) came to 2.49 ± 0.062, the protein stability index (pdr5∆) was 2.06 ± 0.072, the protein stability index (san1∆) was 2.24 ± 0.081 and the protein stability index (ubr1∆) came out at 2.41 ± 0.035.

Consider SGLFVDVKKRTYEAIDV [RPB2], for which the protein stability index is 2.48 ± 0.12 (doa10∆), 3.28 ± 0.12 (pdr5∆), 2.99 ± 0.1 (san1∆) and 3.14 ± 0.097 (ubr1∆).

Turning to AKNFSAQKRVVSYMMPS [SRB8], the protein stability index reads like this: (doa10∆) 2.02 ± 0.17; (san1∆) 2.28 ± 0.15; (ubr1∆) 1.96 ± 0.13.

With QLAGKSGEDTNVGLPIL [YOR098C/NUP1], the protein stability index came out at 2.86 ± 0.15 (doa10∆), 3.32 ± 0.084 (pdr5∆), 3.36 ± 0.062 (san1∆) and 3.25 ± 0.052 (ubr1∆).

Turning to NSLSSNLSSLIVEINNV [YJL041W/NSP1], the protein stability index amounted to 2.26 ± 0.037 (doa10∆), 2.58 ± 0.045 (pdr5∆), 2.35 ± 0.051 (san1∆) and 2.41 ± 0.033 (ubr1∆).

PLIQNSMRTIMKANPAL [PRP8]: the protein stability index is, setting by setting: (doa10∆) 2.4 ± 0.08; (pdr5∆) 2.58 ± 0.22; (san1∆) 1.56 ± 0.3; (ubr1∆) 2.25 ± 0.17.

For the sequence RDQGNDSLNDDLNKENK [YIL149C/MLP2], the protein stability index is 3.23 ± 0.18 (doa10∆), 3.01 ± 0.15 (san1∆) and 3.32 ± 0.063 (ubr1∆).
